Data published in a protein production outcome set (Wang et al. 2014).

Assay: label from the status in PepcDB records

Sequence: MANSTESGSLQSSSTVKVRSHYRPNNGTGSPGGRPRPKRGFLPLGKGLVWGGLVTLTATVAAIAGVGIGFFTPGPKGLVQQVIPGQSAGVEAGQADLFPYHISRPVNILVMGIDRVEPTEEEPNVDEFGGRSDTMLLVRFDPRENGLKLLSIPRDTRVFIPDVGYTKINDANAYGGPQLAARVINRNLGEVPIDRYVRVTTDALQELVDLVGGVEVFVPRPMFYEDKTQQLLIDLPAGLQTLNGQQAEQFVRFRYDANGDIGRVQRQETLLKALQNRLSHPSMITRIPKAIGIMQKTVDTNLTMEEILALVNFGRQLDRQEVQMVMLPGRFSQPAEFDGRSYWVMSDVGKRQVLRNYFDVIEEVPTWAETPGRSPESLRIALQNATDDPQALERVKEYLQSKDFRNFYETSESPQLLAETKILVQRGDLDGAHYLRQTLGGGVVEASSVGDLGSDLTIQVGMDLDQWLKESTPVDDSTPQF
- protein production: failed

Sequence: MANYPKELPAQTQSRQPGIESEMNPSPVYEYEDYKGADKLKGKVALITGGDSGIGRAVSVAYAKEGADIAIVYKDEHEDAEETKKRVEQEGVKCLLIAGDVGEEEFCNEAVEKTVKELGGLDILVNNAGEQHPKESIKDITSEQLHRTFKTNFYSQFYLTKKAIDYLKPGSAIINTTSINPYVGNPTLIDYTATKGAINAFTRTMAQALVKDGIRVNAVAPGPIWTPLIPATFPEETVAQFGQDTPMGRPGQPVEHVGCYVLLASDESSYMTGQTLHVNGGNFVT
- protein production: not failed

Sequence: MANYYEPPASGNRRDAVKGYNSGSFDDSAGDQSQTNDYQLKIKKSKSVPNADRAASRSWSFSDPESRRKRRVAGYKVYSVEQKMKGSIRKSFKWFKDIIGIS
- protein production: failed

Sequence: MAPCAGGTCRTASERRHLQCRSRPSQGRQGGSKSAGRGFIAAEFPCLDGGEPISTARAFRDRNREFSPAMRAILDIVLIILDLYIWLLIASAILSWLIAFNVVNTRNQFVGAVSEFLYRITEPLLAPIRNLLPSLGGLDISPIILILLIMFLQRVITYYIYPAVF
- protein production: failed

Sequence: MAPETLAPDTTGLEVRLRLTDDWFTACDLGALLPGRGVAALLPDGGQVALFRDRDGGLYAIDNRDPFTGAAVLSRGLTGTHQGRPFVASPLLKQRFDLTTGECLDDAAMRVETYRVQAVRAVPAVNAVNPALEHHHHHH
- protein production: failed

Sequence: MAPLGGAPRLVLLFSGKRKSGKDFVTEALQSRLGADVCAVLRLSGPLKEQYAQEHGLNFQRLLDTSTYKEAFRKDMIRWGEEKRQADPGFFCRKIVEGISQPIWLVSDTRRVSDIQWFREAYGAVTQTVRVVALEQSRQQRGWVFTPGVDDAESECGLDNFGDFDWVIENHGVEQRLEEQLENLIEFIRSRL
- protein production: failed

Sequence: MAPNASCLCVHVRSEEWDLMTFDANPYDSVKKIKEHVRSKTKVPVQDQVLLLGSKILKPRRSLSSYGTDKEKTIHLTLKVVKPSDEELPLFLVESGDEAKRHLLQVRRSSSVAQVKAMIETKTGIIPETQIVTCNGKRLEDGKMMADYGIRKGNLLFLASYCIGG
- protein production: failed

Sequence: MAPQASTRENACRSEMLSASSRGSGWPCQENPDLSIPPLRPIALSRRNGWWSGAAAVKLASGHCTGRWKMSFWYVVDAVAVGIILPWIIATYRLLEAFKRGTGAGLTKWAIYAAVCVPAMLLVMWGIQNLR
- protein production: failed

Sequence: MAPRTNRPRTNRPRTGRPPAPDAPAAPDAPTAPDARRRRLPMRFLLPSLLLLAVMAMLMLRGFVHSEILADHRIRPPAATDQVPEKILDGGPVIDTRGGRTTSLSLPDHRLVLTFDDGPDPQWTPKVLDVLKKHHAHAVFFVTGTMTSRHPDLVRRLVAEGHEVGVHTFNHPDLAYQSKKRIDWELSQNQLALAGAAGIRTSLFRPPYSSFADAMDNESWPVTEYIGTRGYITVVNNTDSEDWQKPGVDEIIRRATPRGGKGAVVLMHDSGGDRHQTVQALDRFLPELQRRGYEFENLSEALGAPSAHTPVTGVDRWKGNAWIFLVQAADRITGMLVVGLAVIGGLVLTRFGLMLLLSGTHARRVRRPDFRWGPAPVTEPVSVLVPAYNEAKCIENTVRSLTASEHPVEVIVVDDGSSDGTARLVESLRLPDVRVVRQHNAGKPAALNRGLANARHDLIVMMDGDTVFEPATVRELVQPFADPRVGAVAGNAKVGNRDSLIGAWQHIEYVMGFNLDRRMYDLLRCMPTIPGAVGAFRRSALERVGGMSDDTLAEDTDITMALHRDGWRVVYAEKARAWTEAPESVQQLWSQRYRWSYGTMQAIWKHRRALVERGPSGRFGRVGLPLVALFMVVAPLLAPLIDVFLLYGVIFGPTQKTVLAWLGVLAVQAVCAAYAFRLDRERMTHLVSLPLQQILYRQLMYVVLLQSWITALVGGRLRWQKLRRTGVVEAPGSIPQQRTAGSESERRPVG
- protein production: failed

Sequence: MAPVIRRAKEIDLYCLNSLMYKLHDEHHQQCPDLFKTASEIEEEKSIARYLDDPECMVYVAEMDDVIIGFITGHFCELISTVSKLVMMATIDELYIEKEYRREGVAEQLMMRIEQELKDYGVKEIFVEVWDFNKGALEFYNKQGLNEHIHYLRKPLNRLEHHHHHH
- protein production: not failed

Sequence: MAQAQTQGQEEEQKKKILIVVTHGPEDLDRTYAPLFMASISASMEYETSVFFMIKGPKLLDKKWQEEERKKGGNPFIHFFDMAKENGVKMYVCVQSLKDMCHMKEDDVVEGIELVGGSTLIDLTLEADRTLFF
- protein production: not failed

Sequence: MAQEDVTAVATNGAGPVETHLVFTEFKQMLLVEAQKVGDAVTFYKSAFGAIESGHSLYPKRKLDQELPHVLSSELNLAGSSFVVCDVSSLPGFSTAKSEGSGVTFLLGTKDAEAAVAKAVDAGAVKVEVTEAEVELGFKGKVTDPFGVTWIFAEKKTVITDENKEV
- protein production: not failed

Sequence: MAQEVSPESYKDLVLFLATAGIVAPIFKRLKINPILGYLLAGVILGPFGLGRFIPYAPWLDYFTVDNPDEIAQLAEFGVVFLLFMIGLELSWERLRLMRRWVFGLGAVQVIGCSLALGAGGMLLGLEPVVALTIGAALTLSSTAIAVPVLAERRRLHSEAGRATFSVLLFQDLAVAPILITLAILGRGNGSFQLQDLLALAPAALGLAVIVLVGRLALRPMLKSVAKAKSEEMFMAACLLVIIGAGMVAALSGLSMALGAFVAGVLLAETEYRHEVEVKIEPFKGLLLSLFFVSLGIRLDLSLLAAQPAAILGTALGLLVLKTAVVFGSGLLMGLNRRAAIEAALILAAGGEFAFVLLDNAMSAQVVPPAIGQAVLVSATLTMFLIPGLAALGGYLGRKNAPLPVSEAPPSTANEPDRLGPEPAGQVLVIGYGRVGRLVGDMLGRHDLPWIAVEREARLVEQGRRDGARIYYGDASRLELLERCGLATARAVVVTMDAFEVAEAVVVAARGARPDVPIVVRARDARHAARLYELGATDAVPETIEASLQLSEAVLVDIGVPMGLVIASIHERRDEYRKKLNRPDALGGRRRRLRDATLR
- protein production: failed

Sequence: MAQIPFDLKHADFARLAEVGLRLPGLREVKTLTQTSWIEAPTTIIGTVVSGAELQVGAFCSLSGGTLNNVHIGRYSSIAAGTIIGVHEHPTSWLTTSRTSYWPQVYGWDELIAPDRAAEIRAGKRPFTRSCPITEIGHDVWIGQGCFIKSGVRIGHGSVIGARATVTKDVPPYSIVLGTPGRVVRTRVPEPLIERLLAVEWWRYSIYDLFAAPFDDVARALDVIEDRIAEGAIKPYEAPLVTPADLAEPLGLAARLAARFPRPLARAS
- protein production: failed

Sequence: MAQIVTSTKSCTVNPLRMSQPLGAALAFMGLRNCMPLLHGSQGCTSFGLVLFVRHFRESIPLQTTAMSEVATVLGGFENVEQAIVNIVGRTKPDVIGICTTGVTEIKGDDLDGYIKMVRANHPELANVALVPVSTPDFKGAFEDGFAATVTRIVETLVETPAEGAAPDADRINVLAGSHLTPGDIDELRDIIEAFGLVPTFLPDISGSLDGHVPDDFTPTTHGGVSVAEVVAMGGAGHTLAFGEHMRKAAAALEAKAGVPFTLLSRVTGLAAADELMATLAKISGRPVPPKYRRQRSQLVDAMLDGHFYFGGKSVAIGAEPDMLLNIGGWLADMGCTVSAAVTTTTSPSLAQVPSDEVLIGDLEDLERRAEDCDLLVTHSHGRQAAERLSVPLFRMGLPMFDRLGAVHQVAVGYRGTRDLIFAIGNLFIANIKEPDVNSWRSASACPDQTDAPAKAH
- protein production: failed

Sequence: MAQNNENALPDITKSITLEAPIQKVWETVSTSEGIAKWFMPNDFQLKEGQEFHLQSPFGPSPCKVLAVQAPTELSFEWDTEGWVVTFQLEDLGEKTGFTLIHSGWKEPNEVIGKANEKSSVVRGKMDGGWTGIVNERLRKAVEELEHHHHHH
- protein production: not failed

Sequence: MAQTEKLTDYVNPFVGTDGYGNVYPGAQIPFGGIQISPDTDSRFYDAASGYKYNHLTLMGFSLTHLSGTGIPDLGDFLFIPGTGEMKLEPGTHEDPDQGYRSRYSHDKEWASPNYYAVELADYGVKAEMTSGVRSGMFRFTYPESDNAFIMIDMNHTLWQSCEWSNLRMINDSTITGYKLVKGWGPERHVYFTLEHHHHHH
- protein production: failed

Sequence: MARCAVFLEELWFALFAWVPTVLGTAVRLVAWRPLFRLLGGVCGKVRFGQSLTLQGAGHMRLADGVRLGKGCHLYARTGELVMGENAALNINVVVDADGGTVRIGAHATVGPGTVIRAANHRFDRLDTPIMFQGHEYGEVVIDDDVWIAANCTVVPGVHIGRGAVVGAGAVVTKDVEPYTVVAGVPARFIRRRGPAE
- protein production: failed

Sequence: MARFALVLHAHLPYVRAHGMWPFGEETLYEAMAETYLPLIRVLERLRAEGVEAPFTLGITPILAEQLADARIKEGFWAYAKDRLERAQGDYQRYRGTALEASARHQVAFWELTLDHFQRLSGDLVAAFRKAEEGGQVELITSNATHGYSPLLGYDEALWAQIKTGVSTYRRHFAKDPTGFWLPEMAYRPKGPWKPPVEGPPEGVRPGVDELLMRAGIRYTFVDAHLVQGGEPLSPYGEAALGPVESQEATYHVHELESGLRVLARNPETTLQVWSADYGYPGEGLYREFHRKDPLSGLHHWRVTHRKADLAEKAPYDPEAAFAKTEEHARHFVGLLERLAGRHPEGVILSPYDAELFGHWWYEGVAWLEAVLRLLAQNPKVRPVTAREAVQGPAVRTALPEGSWGRGGDHRVWLNEKTLDYWEKVYRAEGAMREAARRGVLPEGVLRQAMRELLLLEASDWPFLMETGQAEAYARERYEEHARAFFHLLKGASPEELRALEERDNPFPEADPRLYLFREA
- protein production: not failed

Sequence: MARFRDELLLASLIALAALILLRGLGNDSLGFPDADRILMDSVFLRDLLVDLPLADPIGYTKDYFVQYPALSIGYRPPFFPFVAALLQLLVGPEMWATRLALFGFVLVGVASSYFWIRRHYGPWPAWGATALWLTTPYLAQWGWYTMAELTVLSMALLAANLFDKYLAEGKPALLYWSVLAVALAAWTKQTALFLLPWFAAMALAEGRFLAILRRREAWIAAFGLGVLLAPLVAMTLMLGDLNLEQSVGGTNRWTLANWTVRLKTILHHLTPPLLALSVVGAIWAGLKRDRHGLPFALLIVVVYGVFSYISGKNDRYPIFWVPAFALFAVLPFHFLSQRLPAKATVPALALGVGVLAAYQGSLAFTKTPSYATGYKEAAAYVLDSSETPIVFVDAYNNGYFTYFMRALDQGRSMVVLRGDKLLSSSAINMATKVEVHAEGRQEIEEIFRSLGVSLIVVEERNYTGLDVHDELRRFLKTDSFELVQAIPIHSNRTVSVLADFPPLGGQDLLVYRYKDAKTLTSGVVSLRLPVVGQTLSVDMETMMERRRAHP
- protein production: failed

Sequence: MARGEGEFYLAGRRLTGFLSAMTYAATTYSSFMIVGLVGLAYFTGIGSLVFELAYLVATVILLSLFSRRVWRMSRERGWVSPGEMLADLLGSPWVALTASLVFLVSLVPYASAQLKGIAETIVAIAGYSPGDNTAYMVAVGVALLILLAWSLLAGVRGVVLTDAFQGLWMLTAGSLLFLWLASRVFSKSGASEVLSAMESAGLFDMWSATLLIGFVTPWVFFAVTNPQVVQRLYMPKDEESLRRMILYFFLFGLYYTVLVVAIGFLARAGVELGILSIEPQGRDQVTPQLLSLAHPLLAALVFTSIVAASVSTADSIILALASSASRDIGLLVLRLDEKGRLRLGYAAAALFTVLMAVFAATRIGYIVQLSVLSSVMLLGLAPVTIAAWVGLRVHPALAVASIATGPVLVAANVLYSLAVGGEVSLSPAKQVLGVPISVWVLAISLALTAAGIALVRGRR
- protein production: failed
